± gives the standard deviation of the averaged measurements.
Tested on: Saccharomyces cerevisiae
Experiment: protein stability index of tFT-peptide fusion (C-terminal peptide) (PSI (0-1 scale)); higher = more stable (slower turnover)
Settings: temperature: 30 C
Procedure: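 MPS profiling in S. cerevisiae of the yeast C-terminome library: the last 12 aa of each annotated ORF are fused to the C-terminus of a sfGFP-mCherry timer, after a GGGS linker. Cells are FACS-sorted into 8 mCherry/sfGFP bins and deep-sequenced. PSI runs from 0 (unstable) to 1 (stable); wild type and das1Δ backgrounds, two technical replicates each.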

[1] = genetic background: das1 deletion

Sequence: DEMHYSDEDSSE [RRN11 C-terminal 12 aa]
- protein stability index [1]: 0.699 ± 0.073
- protein stability index (genetic background: wild type): 0.709 ± 0.028

Sequence: DEYFNEYNNNSN [TFB1 C-terminal 12 aa]
- protein stability index [1]: 0.7196 ± 0.0065
- protein stability index (genetic background: wild type): 0.675 ± 0.013

Sequence: DGIRQVDDFQAQ [PRE1 C-terminal 12 aa]
- protein stability index [1]: 0.701 ± 0.012
- protein stability index (genetic background: wild type): 0.658 ± 0.0071

Sequence: DGITLDMPLFEF [AOS1 C-terminal 12 aa]
- protein stability index [1]: 0.7107 ± 0.0043
- protein stability index (genetic background: wild type): 0.731 ± 0.047

Sequence: DHMQLTGRILVL [YJL132W C-terminal 12 aa]
- protein stability index [1]: 0.58733 ± 0.00058
- protein stability index (genetic background: wild type): 0.5716 ± 0.0024

Sequence: DHQVDFLGNKIL [YLR463C C-terminal 12 aa]
- protein stability index [1]: 0.712 ± 0.0082
- protein stability index (genetic background: wild type): 0.715 ± 0.022

Sequence: DHSNAFESILIF [TRS130 C-terminal 12 aa]
- protein stability index [1]: 0.6353 ± 0.0054
- protein stability index (genetic background: wild type): 0.684 ± 0.093

Sequence: DIPSEEGTKVIL [BSC3 C-terminal 12 aa]
- protein stability index [1]: 0.701 ± 0.016
- protein stability index (genetic background: wild type): 0.691 ± 0.011

Sequence: DKELDSTFDTFG [MIF2 C-terminal 12 aa]
- protein stability index [1]: 0.701 ± 0.012
- protein stability index (genetic background: wild type): 0.699 ± 0.023

Sequence: DKEWTNYATHIG [AYT1 C-terminal 12 aa]
- protein stability index [1]: 0.696 ± 0.019
- protein stability index (genetic background: wild type): 0.701 ± 0.013

Sequence: DKIQDARNSSTK [MHP1 C-terminal 12 aa]
- protein stability index [1]: 0.677 ± 0.028
- protein stability index (genetic background: wild type): 0.702 ± 0.041

Sequence: DKYLCMLKTCVF [NUT1 C-terminal 12 aa]
- protein stability index [1]: 0.515 ± 0.019
- protein stability index (genetic background: wild type): 0.517 ± 0.021

Sequence: DLVRTDQLCPNY [CQD1 C-terminal 12 aa]
- protein stability index [1]: 0.681 ± 0.021
- protein stability index (genetic background: wild type): 0.682 ± 0.035

Sequence: DNDNDDDIDSDN [RUP1 C-terminal 12 aa]
- protein stability index [1]: 0.704 ± 0.051
- protein stability index (genetic background: wild type): 0.6853 ± 0.0067

Sequence: DNFRERYFNNFN [TRM11 C-terminal 12 aa]
- protein stability index [1]: 0.71368 ± 0.00039
- protein stability index (genetic background: wild type): 0.6816 ± 0.0054

Sequence: DNGELDLSGFNI [MED2 C-terminal 12 aa]
- protein stability index [1]: 0.696 ± 0.013
- protein stability index (genetic background: wild type): 0.734 ± 0.073

Sequence: DNQSLPNSEKIK [CST6 C-terminal 12 aa]
- protein stability index [1]: 0.711 ± 0.017
- protein stability index (genetic background: wild type): 0.7044 ± 0.0021

Sequence: DQPFYKKMFGKK [HXT3 C-terminal 12 aa]
- protein stability index [1]: 0.6926 ± 0.0016
- protein stability index (genetic background: wild type): 0.698 ± 0.042

Sequence: DRIESSSGRISW [SPC110 C-terminal 12 aa]
- protein stability index [1]: 0.702 ± 0.022
- protein stability index (genetic background: wild type): 0.681 ± 0.028

Sequence: DSEIEMLKGRLQ [EPO1 C-terminal 12 aa]
- protein stability index [1]: 0.6666 ± 0.002
- protein stability index (genetic background: wild type): 0.694 ± 0.026

Sequence: DSELGCCCCFFN [EDS1 C-terminal 12 aa]
- protein stability index [1]: 0.701 ± 0.03
- protein stability index (genetic background: wild type): 0.696 ± 0.018

Sequence: DSIADEFSSLYF [SPR6 C-terminal 12 aa]
- protein stability index [1]: 0.7689 ± 0.0042
- protein stability index (genetic background: wild type): 0.721 ± 0.046

Sequence: DSPDFKKHLEKK [RSM10 C-terminal 12 aa]
- protein stability index [1]: 0.684 ± 0.025
- protein stability index (genetic background: wild type): 0.721 ± 0.046

Sequence: DSTVLDFVESIS [HER2 C-terminal 12 aa]
- protein stability index [1]: 0.7089 ± 0.005
- protein stability index (genetic background: wild type): 0.694 ± 0.06

Sequence: DTGNTIKCEFIL [ERG29 C-terminal 12 aa]
- protein stability index [1]: 0.7022 ± 0.0068
- protein stability index (genetic background: wild type): 0.699 ± 0.017

Sequence: DTTFPQDQHDID [PUT7 C-terminal 12 aa]
- protein stability index [1]: 0.696 ± 0.012
- protein stability index (genetic background: wild type): 0.629 ± 0.059

Sequence: DVETRVQNLEQT [DPB4 C-terminal 12 aa]
- protein stability index [1]: 0.713 ± 0.032
- protein stability index (genetic background: wild type): 0.699 ± 0.013

Sequence: DVIDTIMSKQEP [UGA4 C-terminal 12 aa]
- protein stability index [1]: 0.698 ± 0.02
- protein stability index (genetic background: wild type): 0.6826 ± 0.0027

Sequence: DWAPGKQLEMNH [JAC1 C-terminal 12 aa]
- protein stability index [1]: 0.699 ± 0.018
- protein stability index (genetic background: wild type): 0.743 ± 0.042

Sequence: EAADEADEADEE [RPS9A C-terminal 12 aa]
- protein stability index [1]: 0.6914 ± 0.0068
- protein stability index (genetic background: wild type): 0.747 ± 0.017

Sequence: EAEQTKAPKIQI [TMC1 C-terminal 12 aa]
- protein stability index [1]: 0.6728 ± 0.0043
- protein stability index (genetic background: wild type): 0.701 ± 0.012

Sequence: EAHREQIGGATY [SMT3 C-terminal 12 aa]
- protein stability index [1]: 0.691 ± 0.016
- protein stability index (genetic background: wild type): 0.676 ± 0.011

Sequence: EAVDRIVSHDEL [SEC20 C-terminal 12 aa]
- protein stability index [1]: 0.702 ± 0.014
- protein stability index (genetic background: wild type): 0.6744 ± 0.00081

Sequence: ECRKKNYFKCKH [ATG39 C-terminal 12 aa]
- protein stability index [1]: 0.692 ± 0.0091
- protein stability index (genetic background: wild type): 0.187 ± 0.0042

Sequence: EDAFLKDVFQQS [KGD1 C-terminal 12 aa]
- protein stability index [1]: 0.7394 ± 0.0043
- protein stability index (genetic background: wild type): 0.782 ± 0.093

Sequence: EDESLNSSRSTT [RCF3 C-terminal 12 aa]
- protein stability index [1]: 0.6802 ± 0.0033
- protein stability index (genetic background: wild type): 0.691 ± 0.013

Sequence: EDGVGDPREEDE [RAD51 C-terminal 12 aa]
- protein stability index [1]: 0.693 ± 0.023
- protein stability index (genetic background: wild type): 0.6258 ± 0.0013

Sequence: EDITVQVPDTPT [EST1 C-terminal 12 aa]
- protein stability index [1]: 0.708 ± 0.017
- protein stability index (genetic background: wild type): 0.674 ± 0.017

Sequence: EDPDFLQHALQS [GRX3 C-terminal 12 aa]
- protein stability index [1]: 0.707 ± 0.013
- protein stability index (genetic background: wild type): 0.704 ± 0.013

Sequence: EDSSDSSDSDSD [BDF2 C-terminal 12 aa]
- protein stability index [1]: 0.669 ± 0.015
- protein stability index (genetic background: wild type): 0.675 ± 0.068

Sequence: EEDIFYRNQVVF [YKR075C C-terminal 12 aa]
- protein stability index [1]: 0.738 ± 0.0081
- protein stability index (genetic background: wild type): 0.777 ± 0.059

Sequence: EEDPEYFQHALQ [GRX4 C-terminal 12 aa]
- protein stability index [1]: 0.71049 ± 4e-05
- protein stability index (genetic background: wild type): 0.715 ± 0.049

Sequence: EEEKRHGIYLKC [GUP1 C-terminal 12 aa]
- protein stability index [1]: 0.694 ± 0.029
- protein stability index (genetic background: wild type): 0.647 ± 0.019

Sequence: EEFNKQLKDIEA [YOR289W C-terminal 12 aa]
- protein stability index [1]: 0.69 ± 0.026
- protein stability index (genetic background: wild type): 0.661 ± 0.017

Sequence: EEGQTQPEEESA [BUR6 C-terminal 12 aa]
- protein stability index [1]: 0.691 ± 0.0078
- protein stability index (genetic background: wild type): 0.692 ± 0.033

Sequence: EERDRRRAQQGL [RPS4A C-terminal 12 aa]
- protein stability index [1]: 0.6948 ± 0.0053
- protein stability index (genetic background: wild type): 0.692 ± 0.05

Sequence: EFDDYESRMHGI [EAR1 C-terminal 12 aa]
- protein stability index [1]: 0.73 ± 0.029
- protein stability index (genetic background: wild type): 0.694 ± 0.0086

Sequence: EGEDEELDIDDI [TIF11 C-terminal 12 aa]
- protein stability index [1]: 0.671 ± 0.0097
- protein stability index (genetic background: wild type): 0.6717 ± 0.0065

Sequence: EGIETTHNKRIR [AMA1 C-terminal 12 aa]
- protein stability index [1]: 0.675 ± 0.018
- protein stability index (genetic background: wild type): 0.666 ± 0.036

Sequence: EGKWEPAGEVHQ [SEC13 C-terminal 12 aa]
- protein stability index [1]: 0.706 ± 0.012
- protein stability index (genetic background: wild type): 0.7167 ± 0.0048

Sequence: EGVVLGQRRDIV [SCP1 C-terminal 12 aa]
- protein stability index [1]: 0.696 ± 0.028
- protein stability index (genetic background: wild type): 0.672 ± 0.0097

Sequence: EHLWNCFFHGSD [IRC20 C-terminal 12 aa]
- protein stability index [1]: 0.73 ± 0.012
- protein stability index (genetic background: wild type): 0.731 ± 0.061

Sequence: EHVGKQCGYKYH [STP3 C-terminal 12 aa]
- protein stability index [1]: 0.705 ± 0.023
- protein stability index (genetic background: wild type): 0.7096 ± 0.0013

Sequence: EIFNDFSKRCCF [CDC43 C-terminal 12 aa]
- protein stability index [1]: 0.7326 ± 0.0031
- protein stability index (genetic background: wild type): 0.73168 ± 0.00037

Sequence: EIMLGKNLLITS [YNL109W C-terminal 12 aa]
- protein stability index [1]: 0.619 ± 0.0087
- protein stability index (genetic background: wild type): 0.503 ± 0.028

Sequence: EIVRNFSLFNMV [ARP3 C-terminal 12 aa]
- protein stability index [1]: 0.697 ± 0.031
- protein stability index (genetic background: wild type): 0.6866 ± 0.0035

Sequence: EKANDIGFNKFR [RPS29A C-terminal 12 aa]
- protein stability index [1]: 0.678 ± 0.014
- protein stability index (genetic background: wild type): 0.7106 ± 0.006

Sequence: EKDNSQKIEAKK [SDH4 C-terminal 12 aa]
- protein stability index [1]: 0.69 ± 0.012
- protein stability index (genetic background: wild type): 0.697 ± 0.11

Sequence: EKEALWKFAKRL [ATP10 C-terminal 12 aa]
- protein stability index [1]: 0.699 ± 0.032
- protein stability index (genetic background: wild type): 0.3037 ± 0.00067

Sequence: EKKYLNQSQNQA [BSD2 C-terminal 12 aa]
- protein stability index [1]: 0.684 ± 0.035
- protein stability index (genetic background: wild type): 0.692 ± 0.059

Sequence: EKLISLSQSMEN [ATP11 C-terminal 12 aa]
- protein stability index [1]: 0.718 ± 0.0096
- protein stability index (genetic background: wild type): 0.785 ± 0.11

Source: the supplement of paper PMC10724198
